# Source: the nanobody polyreactivity screen of Harvey et al. (2022)
# Assay: yeast display, Sf9 membrane polyspecificity reagent, FACS + sequencing; frameworks hold sequencing errors
# How it was run: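 Synthetic nanobody libraries on Saccharomyces cerevisiae BJ5465 were galactose-induced for 36–48 hours, stained 1 hour at 4 °C with 10% biotinylated, detergent-solubilized Sf9 membrane reagent and enriched on streptavidin microbeads. FACS then separated cells into low and high (top ~1%) gates by anti-HA (expression) and streptavidin (reagent binding) fluorescence. Genes were colony-PCR amplified, MiSeq 2 × 250 sequenced and CDR-length filtered. A clone's polyreactivity label is that of its gate of origin.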
row,Sequence,polyreactivity (PSR sort gate)
1,QVQLVESGGGLFHAGGRLRLSCAASGRIFGRYDMGWSIQAPGKERELVASISTGGGGTYYADSVKGRFTISRDNAKNTVYLQMNSLKPEDTAVYYCAKAWRGFWTKYDYWGQGTQVTVSS,low polyreactivity
2,QVQLVESGGGLVQAGGSLRLSCAASGSNFHQYAMGWYRQAPGKERELVAGINWSGGSTYYADSVKGRFTISRDNAKNTVYLQMNSLKPEDTAVYYCAKRYQLARAAYTGGYWGQGTQVTVSS,high polyreactivity
3,QLQLVESRGGLVQAGGSLRLSCASYGSIFIWYAMGWYRQATGKERELVAAITSSGSTNYADSVKGRFTISRDNAKNPVYLQMNSLKPEDTAVYYCAAEYTYYTYNLNYWGQGTQVTVSS,low polyreactivity
4,QVQLVESGGGLVQAGGSLRLSCAASGITFDENTMGWYRQATGKERELVASISNGGNTYYADSVKGRFTISRDNAKNTVYLQMNSLKPEDSAVYYCAARYGYYYSRYDHWGQGTQVTVSS,low polyreactivity
5,QVQLVESGGGLVQAGGSLRLSCAASGSIFIYYAMGWYRQAPGKERELVAAISSSGGSTYYADSVKGRFTISRDNAKNTVYLQTNSLKPEDTAVYYCATVPYRYYDDDYWGQGTQVTVSS,high polyreactivity
6,QVQLVESGGGLVQAGGSLRLSCAASGSIFPFNAMGWYRQAPGKERELVAAIRWSDGRTYYADSVKGRFTISRDNAKNTVYLQMNSLKPEDTAVYYCAAKSYWGQGTQVTVSS,high polyreactivity
7,QVQLVESGGGLVQAGGSHRLSCAASGFTFNKYAMGWYRQAPRKERELVAAISSSGGRTSYADSVKGRFTISRDNAKNTVYLQMNSVKPEDTAVYYCNKVSTADMGYWGQGTQVTVSS,high polyreactivity
8,QVQLVESGGGLVQAGGSLRLSCAASGYLWYYAMGWYRQSPGKERELVAAICWGGGSTFFADSVKGRFTISRDNAKNTVYLQMNSLKPEDTAVYYCAAVDAVGPTSHAMFYWGQGTQVTGSS,low polyreactivity
9,QVQLVESGGGLVQAGGSLRLSCAASGRTFVRYAMGRYRQAPGKERELVAAISGDGASTYYADSVKGRFTISRDNAKNTVYLQMNSLKPEDPAVYYCNARSIRRYYYPDYDYWGQGTQVTVSS,high polyreactivity
10,QVQLVESGGGLVQAGGSLRLSCAASGFTFYTYAMGWYRQAPGKERELVAGISTRGGRTYYADSVKGRFTISRDNAKNTVYLQMNSLKPEDTAVYYCNAVDKTGKYDYWGQGTQVTVSS,high polyreactivity
11,QVQLVESGGGLVLAGGSLRLSCAASRFILRDNGMGWNRKAPVKERELVAAISERGGRTDYADSVKGRFTISRDNAKNTVYLQMNSLKPEDTAVYYCAAEDIANFYYWGQGPQVTVSS,high polyreactivity
12,QVHQQESGGDLEQAGGSLRLSCTASGTISDVRFMGWYRQAPGKERELVATISYVTITYYADSVKGRFTISRDSEKHRVSADDEHETGRYRGVFLLYYWGLGTQVTVSS,low polyreactivity
13,QVQLVESGGGLVQAGGSLRLSCAASGFTFDYNAMGWYRQAPGKDRELVAAISESGGSTYYADSVKGRFTISRDNAKNTVYLQMNSLKPEDTAVYYCPTDFPVYYDYGYWGQGTQVTVSS,high polyreactivity
14,QVQLVESGGGLVQAGCSLRLSCAASGSIFAYYDMGWYRQAPGKERELVAAITTRDDDTYYADSVKGRFTISRDNAKNTVYLLLNSLKPEDTAVYYCAAAWWDYGNGKYDYWGQGTQVTVSS,low polyreactivity
15,QVHLVESGGCLVQAGGSLRLSCAASGITFRWYAMGWYILAPGKERELVSSIDGRGASTYADSVKGRFTSSRDNAKNTVYLQMNSLKPEDSAVYYCAVAQVRVSYLWVRKFYYWGQGTQVTVSS,high polyreactivity
16,QVQLVESGGGLVQAGGSLRLSCAASGFTFRVNAMGWYRQAPGKESELVAAISSGGGITYYADSVKGRFTISRDNAKNTVYLQMNSLKPEDTAVYYCAARENRYLERDYWGQGTQVTVSS,low polyreactivity
17,QVQLQESGGGLVQAGGSLRKSCAASGSVSYQEAMGWYRQAPGKERELVATISFGANTNYADSVKGRFTISRDNAKNTVYLQMNSLKPEDTAVYYCAAESLFDDYYGYWGQGTQVTVSS,low polyreactivity
18,QVQLVESGGGLVQAGGSLRLSCAASGFIYWYYAMGWYRQAPGKERELVAAISGTGGTTYYADSVKGRFTISRDNAKNTVYLQMKSLKPEDTAVYYCNDRYDSRRTAIGYDYWGQGTQVTGSS,low polyreactivity
19,QVQLVESGGGLVQAGGSLRLSCAASGSIFASNAMGWYRQAPGKEREFVAAIRYSAGITYYADSVKGRFTISRDNAKNTVYLQMNSLKPEDTAVYFCSAYGWVNRWYSRFDYWGQGTQVTVSS,high polyreactivity
20,QVQLVESGGGLVQAGGSLRLSCAASGRTFIRNAMGWYRQAPGKERELVAAISRSGGRTYYADSVKGRFTISRDNAKNTVYLQMNSLKPEDTAVYYCAAGSYQRYAFDYWGQGTQVTVSS,high polyreactivity
21,QVQLVESGGGLVQAGGSLRLSCAASGRIFRAYAMGWYRQAPGKEREFVAAITWSGGSTYYADSVKGRFTISRDNAKNTVYLQMNSLKPEDTAVYYCAARGYSYRRRSQQFDYWGQGTQVTVSS,high polyreactivity
22,QVQLVESGGGLVQAGGSLRLSCAASGYNFPYYAMGWYRQAPGKERELVAGITTDGSSTYYADSVKGRFTISRDNAKNTVYLQMNSLKPEDTAVYYCYGYPGYTWGWYDYWGQGTQVTVSS,low polyreactivity

row,Sequence,polyreactivity (PSR sort gate)
1,QVQLVESGGGLVQAGGSLRLSCAASGFTFKFYAMGWYRQAPGKERELVAAISWSGGSTYYADSVKGRFTISRDNAKNTVYLQMNSLKPEDTAVYYFAKRGGRQTYYYWGLGTQVTVSS,high polyreactivity
2,QVHLVESGGGLVQAAGSLRLSCAASGSTFKYNAMGWYRQAPGKERELVAAITRGGRTYYADSVKGRFTISRDNAKNTVYLQMNSLKPEDTEVYYCAAAIPSGTFYAGAYYYWGQGTQVTVSS,high polyreactivity
3,QVQLVESGGGLVQAGGSLRLSCAASGRNFPVYAMGCYRQAPGKERELVAAMTRSDDSTYYADSVKGRFTISRDNAKNTVYLQMNSLKPEDTAVYYCAADVEGWTVESDVYRVGYDFWGQGTQVTVSS,low polyreactivity
4,QVQLVESGGGLVQAGGSLRLSCAASGRIFDGYAMGWYRQAPGKERELVAAISNGGGSTYYADSVKGRFTISRDNAKNTVYLQMNSLKPEDTAVYYCAARIFSRYTRNYWGQGTQVTVSS,high polyreactivity
5,QVQLVESGGGLVQAGGSLRLSCAASGRIFSNYAMGWYRQAPGKERELVAAISRGGGRTFYADSVKGRFTISRDNAKNTVYLQMNSLKPEDTAVYYCATRSYYVKGDYWGQGTQVNVSS,high polyreactivity
6,QVQLVESGGGLVQAGGSLRLSCAASGSTFRTNGMGWYRQAPGKESELVAAITRGTSTNYADSVKGRFTISRDNAKNTVYLQMNSLKPEDTAVYYCAADGPDRYHYTTTRYRYDYWGQGTQVTVSS,low polyreactivity
7,QVQLVESGGGLVQAGGSLRLSCAASGSIFSGYTMGWYRQAPGKERELVAAISSDGSTTYADSVKGRFTISRDNAKNTVYLQMNSLNPEDTADYYCAAYPYWEGSYGGYDYWGQGTEVTVSS,low polyreactivity
8,QVQLVESGGGLVQAGGSLRLSCAASGSIFALYAMGWYRQAPGKERELVAAISNTGGSTYYADSVKGRFTISRDNAKNTVYLQMNSLKPEDTAVYYCAARKARSSPRYYYWGQGTQVTVSS,high polyreactivity
9,QVQLVESGGGLVQAGGSLRLSCAASGITFYYYAMGWYRQAPGKERELVAAISFRGGSTYYADSVKGRFTISRDNAKNTVYLQMNSLKPEDTAVYYCAAETSPSWYTWVTYDYWGQGTKVTVSS,high polyreactivity
10,QVQHVESGGGLVQAGGSLRLSCAASGIIFYDKTMGWYRQAPGKERELVASITWRGGSTYYADSVKGRFTISRDNAKNTVYLQMNSLKPEDTAVYYCNADSSDDYDYWGQGTQVTVSS,low polyreactivity
11,QVQLHESGVGLVQAGGSLRLSCASSGTISYAGPMGWYRQAPGKEREFVAGIGVGSNTNYADSVKGRYTIIRDNAKNTVYLQMNSLKPEDTAVYYCAVGGYAPLGRPYWGQGTQVTVSS,low polyreactivity
12,QVQLVESGGGLVQAGGSLRLSCAASGNTFYGYAMGWYRQAPGKDRELVASITLSGDSTYYADSVKGRFTISRDNAKNTVYLQMNSLKQEDTAVYYCAGVYTYPLGYYHYTYDYWGQGTQVTVSS,low polyreactivity
13,QVQLVESGGGLVQAGGSLRLSCAASGLTFYYNTMGWYRQAPGKERELVAAINWSGGRTYYADSVKGRFTISRDNAKNTVYLQMNSLKPEDTAVYYCNAASSRALGYAYDYWGQGTQVTVSS,high polyreactivity
14,QGQLVESGGGLVQAGGSLRLSCAASGSTFPTNSMGWYRPAPGNDRELVAAITGGASTYYADSVKGRFTISRDNAKNTVYLQMNSLKPEDTAVYYCAADDSWFYYGYGYWGQGTQVTVSS,low polyreactivity
15,QVQLVESGGGLVQAGGSLRLSCAASGRIINYYAMGWYRPAPGKERELVAGISWSGGSTSYADSVKGRFTISRDNAKNTVYLQMNSLKPEDTAVYYCAAGVFKAFYYWGQGTQVTVSS,low polyreactivity
16,QVQLVESGGGLVQAGGSLRLSCAASGSIITVNAMGWYRQAPGKEREFVAGITSIGGRTYYADSVKGRFTISRDNAKNTDYLQMNSLKPEDTAVYDCNKRTYRARYDYWGQGTQVTVSS,high polyreactivity
17,QVQLVESGGGLVQAGGSLGLSCAASGYIFGIYAMGWYRQAAGKERELVAAISSDSTYYADSVKGRFTISRDNAKNTVYLQMNSLKPEDTAVYYCAPYWFNQDYEFEYWGQGTQVTVSS,high polyreactivity
18,QVQLVESGVGLVQAGGSLRLSCAASGGTFRPYAMGWYRHAPGKESELVAAISYTGSTYYADSVKGRFTISRDNAKNTVYLQMNSLKPVDTAVYYCAKDLWYPPRFDYWGQGTQVTVSS,low polyreactivity
19,QVQLVDSGGGLVQAGGSLLLSCSASGSIFFSYAMGLYRQAPGKEREFVAAINSDDASTYADSVKGRFTISRDNAKNTVYLQMNSLKPEDTAVYYCAASFLWSWYDYWGQGTQVTVSS,low polyreactivity
20,QVQIVDSGGGLVQAGGSLRLSCAASGSTFRAYAMGWYRQSPGKEWELVAAISSSGGSTYYADSVKGRFTISRDNAKITVYLQMNSLKPEDTAVYYFAAAFLAAGRNVRYYWGQGTQVTVSS,high polyreactivity
21,QVQLVESGGGLVQAGGSLRLSCAASGRIFSRNAMGWYRKAPGKERELVATISAGGGRTSYADSVKGRFTISRDNAKNTVYLQMNSLKPEDTADYYCAARGQVGYYWGQGTQVTVSS,high polyreactivity
